Laboratory results reported in article PMC11229354, “PRMT5-mediated arginine methylation of FXR1 is essential for RNA binding in cancer cells”.

How the values were obtained:
Experiment in all cases: EMSA; 150 mM KCl, 1 mM Mg2+; EMSA: 50 mM Tris-HCl pH 7.4, 1 mM MgCl2, 0.1 mM EDTA, 150 mM KCl (or LiCl, printed LiCl2), 1 mM DTT, 1 U/ul RNase inhibitor, 100 ug/ml BSA, ~25 C, 20 min; 0.5 pmol RNA in 10 ul
Conditions in all cases: protein: recombinant; tags: N-terminal GST (pGEX-6P-1); label: 5' 32P or 5' ATTO 550; intramolecular G4 (plausible structure)
[1] = molecular target: GST-FXR1 S382-P476 R386K (human, UniProt P51114 382-476, R386K)
GST-FXR1 S382-P476 R386K, sequence (P51114 382-476 R386K): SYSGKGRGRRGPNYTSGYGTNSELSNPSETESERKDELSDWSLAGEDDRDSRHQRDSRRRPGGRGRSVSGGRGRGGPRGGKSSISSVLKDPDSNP

[2] = molecular target: GST-FXR1 S382-P476 WT (human, UniProt P51114 382-476)
GST-FXR1 S382-P476 WT, sequence (P51114 382-476): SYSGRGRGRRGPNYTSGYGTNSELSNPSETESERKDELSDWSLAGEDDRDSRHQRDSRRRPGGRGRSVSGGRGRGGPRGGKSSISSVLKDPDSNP

[3] = molecular target: GST-FXR1 S382-P476 R386-459K (human, UniProt P51114 382-476, R386K;R388K;R453K;R455K;R459K)
GST-FXR1 S382-P476 R386-459K, sequence (P51114 382-476 R386K/R388K/R453K/R455K/R459K): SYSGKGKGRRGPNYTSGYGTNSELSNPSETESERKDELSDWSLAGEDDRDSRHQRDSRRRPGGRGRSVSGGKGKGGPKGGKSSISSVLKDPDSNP

## GGGGGUGAGGGUCCCAUGUGGUGGCACAGG (structured_RNA) [30-mer p21 3'UTR G4-RNA (seg1)]
[1]
  binding result: no binding
[2]
  Kd: 25 nM
[3]
  binding result: no binding
